Results published in paper PMC9482650, “Quantitative fragmentomics allow affinity mapping of interactomes” (Nature Communications, 2022).

What was measured:
Test in all cases: holdup assay
Set-up in all cases: key: below the threshold = too weak to quantify, mostly under pKd 3.1 to 4
Conditions in all cases: plain residues with an end cap or a label only (N-terminal biotin on a linker: ado-ado)
SCRIB_2, Q14160 = biological target: SCRIB_2, Q14160
DLG3_2, Q92796 = biological target: T1, DLG3_2, Q92796
T1 sequence (Q92796 221-321, limits assumed, looked up): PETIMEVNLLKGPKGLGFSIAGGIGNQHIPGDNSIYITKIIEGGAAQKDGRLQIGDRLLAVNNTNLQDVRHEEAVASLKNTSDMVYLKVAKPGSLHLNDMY

PDLIM1, O00151 = biological target: PDLIM1, O00151
PDLIM1, O00151, sequence (O00151 1-87): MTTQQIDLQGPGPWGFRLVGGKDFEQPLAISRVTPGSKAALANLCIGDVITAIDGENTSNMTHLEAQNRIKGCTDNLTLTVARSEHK

SHANK1, Q9Y566 = biological target: T2, SHANK1, Q9Y566
T2 sequence (Q9Y566 658-767, limits assumed, looked up): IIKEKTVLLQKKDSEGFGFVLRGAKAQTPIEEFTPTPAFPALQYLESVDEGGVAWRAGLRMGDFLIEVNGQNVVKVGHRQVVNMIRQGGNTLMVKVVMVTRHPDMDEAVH

APBA1_1, Q02410 = biological target: T3, APBA1_1, Q02410
T3 sequence (Q02410 651-752, limits assumed, looked up): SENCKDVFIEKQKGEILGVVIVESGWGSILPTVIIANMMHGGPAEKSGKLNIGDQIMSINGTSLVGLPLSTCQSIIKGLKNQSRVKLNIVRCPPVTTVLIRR

DLG4_3, P78352 = biological target: DLG4_3, P78352
DLG4_3, P78352, sequence (P78352 306-403): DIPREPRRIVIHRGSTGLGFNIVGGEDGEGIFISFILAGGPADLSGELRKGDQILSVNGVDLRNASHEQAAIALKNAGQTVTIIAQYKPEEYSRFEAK

MPDZ_5, O75970 = biological target: T4, MPDZ_5, O75970
T4 sequence (O75970 695-796, limits assumed, looked up): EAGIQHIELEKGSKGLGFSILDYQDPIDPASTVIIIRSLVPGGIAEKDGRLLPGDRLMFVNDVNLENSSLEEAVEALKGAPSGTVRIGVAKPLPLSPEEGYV

MAGI3_2, Q5TCQ9 = biological target: MAGI3_2, Q5TCQ9
MAGI3_2, Q5TCQ9, sequence (Q5TCQ9 398-503): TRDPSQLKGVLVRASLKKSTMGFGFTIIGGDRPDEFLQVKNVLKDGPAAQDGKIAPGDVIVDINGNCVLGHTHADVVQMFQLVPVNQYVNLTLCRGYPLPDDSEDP

LDB3, O75112 = biological target: LDB3, O75112
LDB3, O75112, sequence (O75112 1-94): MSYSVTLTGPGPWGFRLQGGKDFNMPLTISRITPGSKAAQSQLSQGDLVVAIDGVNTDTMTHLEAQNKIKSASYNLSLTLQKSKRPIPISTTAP

MAGI1_2, Q96QZ7 = biological target: MAGI1_2, Q96QZ7
MAGI1_2, Q96QZ7, sequence (Q96QZ7 456-580): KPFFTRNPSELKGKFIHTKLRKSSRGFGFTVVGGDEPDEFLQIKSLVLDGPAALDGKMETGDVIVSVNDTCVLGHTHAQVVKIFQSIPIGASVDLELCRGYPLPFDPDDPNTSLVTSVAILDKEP

TJP2_1, Q9UDY2 = biological target: TJP2_1, Q9UDY2
TJP2_1, Q9UDY2, sequence (Q9UDY2 24-128): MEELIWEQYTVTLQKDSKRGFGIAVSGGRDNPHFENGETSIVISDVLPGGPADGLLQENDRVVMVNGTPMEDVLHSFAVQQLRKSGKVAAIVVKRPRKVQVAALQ

GRASP, Q7Z6J2 = biological target: GRASP, Q7Z6J2
GRASP, Q7Z6J2, sequence (Q7Z6J2 96-193): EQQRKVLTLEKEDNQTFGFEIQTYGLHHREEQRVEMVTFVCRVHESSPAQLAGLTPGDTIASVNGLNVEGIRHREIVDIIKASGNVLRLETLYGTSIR

GRIP1_5, Q9Y3R0 = biological target: T5, GRIP1_5, Q9Y3R0
T5 sequence (Q9Y3R0 568-668, limits assumed, looked up): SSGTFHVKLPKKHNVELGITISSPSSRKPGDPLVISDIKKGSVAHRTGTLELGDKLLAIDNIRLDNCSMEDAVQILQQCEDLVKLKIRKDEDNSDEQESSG

LIN7A, O14910 = biological target: T6, LIN7A, O14910
T6 sequence (O14910 103-200, limits assumed, looked up): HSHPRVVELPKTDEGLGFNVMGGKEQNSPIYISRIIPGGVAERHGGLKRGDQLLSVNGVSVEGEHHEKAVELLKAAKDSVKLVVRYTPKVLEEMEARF

TJP1_2, Q07157 = biological target: TJP1_2, Q07157
TJP1_2, Q07157, sequence (Q07157 181-274): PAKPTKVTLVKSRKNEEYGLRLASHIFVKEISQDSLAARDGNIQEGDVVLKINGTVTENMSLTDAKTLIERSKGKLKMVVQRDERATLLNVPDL

SCRIB_3, Q14160 = biological target: SCRIB_3, Q14160
SCRIB_3, Q14160, sequence (Q14160 999-1103): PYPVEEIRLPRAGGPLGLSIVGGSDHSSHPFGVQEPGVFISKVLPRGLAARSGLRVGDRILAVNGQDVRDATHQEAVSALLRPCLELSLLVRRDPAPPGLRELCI

ARHGEF12, Q9NZN5-2 = biological target: ARHGEF12, Q9NZN5-2
ARHGEF12, Q9NZN5-2, sequence (Q9NZN5 other isoform, or with tags, fused parts or gaps): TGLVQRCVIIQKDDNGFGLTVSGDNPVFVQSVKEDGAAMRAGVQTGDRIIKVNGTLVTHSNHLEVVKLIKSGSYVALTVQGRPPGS

DLG3_3, Q92796 = biological target: T7, DLG3_3, Q92796
T7 sequence (Q92796 374-475, limits assumed, looked up): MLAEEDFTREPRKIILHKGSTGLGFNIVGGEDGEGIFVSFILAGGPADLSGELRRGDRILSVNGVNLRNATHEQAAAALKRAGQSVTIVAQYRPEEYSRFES

MAGI2_3, Q86UL8 = biological target: MAGI2_3, Q86UL8
MAGI2_3, Q86UL8, sequence (Q86UL8 600-682): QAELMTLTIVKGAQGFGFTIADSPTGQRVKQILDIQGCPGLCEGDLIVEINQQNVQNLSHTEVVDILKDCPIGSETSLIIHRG

FRMPD4, Q14CM0 = biological target: FRMPD4, Q14CM0
FRMPD4, Q14CM0, sequence (Q14CM0 67-160): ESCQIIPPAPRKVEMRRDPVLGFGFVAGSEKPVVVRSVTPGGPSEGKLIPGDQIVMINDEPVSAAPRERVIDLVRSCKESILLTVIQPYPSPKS

MAGI2_2, Q86UL8 = biological target: MAGI2_2, Q86UL8
MAGI2_2, Q86UL8, sequence (Q86UL8 410-522): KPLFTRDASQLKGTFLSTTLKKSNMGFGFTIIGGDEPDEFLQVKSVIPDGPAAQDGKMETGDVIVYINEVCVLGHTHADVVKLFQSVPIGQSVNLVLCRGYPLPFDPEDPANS

MPP6, Q9NZW5 = biological target: T8, MPP6, Q9NZW5
T8 sequence (Q9NZW5 125-219, limits assumed, looked up): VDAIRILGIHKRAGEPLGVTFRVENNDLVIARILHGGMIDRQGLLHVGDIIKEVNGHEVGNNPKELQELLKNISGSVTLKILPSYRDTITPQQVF

RADIL, Q96JH8 = biological target: T9, RADIL, Q96JH8
T9 sequence (Q96JH8 971-1071, limits assumed, looked up): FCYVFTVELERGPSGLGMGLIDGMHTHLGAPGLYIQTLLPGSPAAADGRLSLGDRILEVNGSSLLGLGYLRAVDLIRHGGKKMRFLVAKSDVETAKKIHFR

DLG5_1, Q8TDM6 = biological target: DLG5_1, Q8TDM6
DLG5_1, Q8TDM6, sequence (Q8TDM6 617-713): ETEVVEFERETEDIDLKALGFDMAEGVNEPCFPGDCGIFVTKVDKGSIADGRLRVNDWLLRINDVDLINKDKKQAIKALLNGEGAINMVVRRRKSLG

IL16_1, Q14005 = biological target: IL16_1, Q14005
IL16_1, Q14005, sequence (Q14005 210-306): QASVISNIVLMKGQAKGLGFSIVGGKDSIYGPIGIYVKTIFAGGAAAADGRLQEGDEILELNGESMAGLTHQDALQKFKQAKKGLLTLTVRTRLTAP

SIPA1L2, Q9P2F8 = biological target: T10, SIPA1L2, Q9P2F8
T10 sequence (Q9P2F8 945-1036, limits assumed, looked up): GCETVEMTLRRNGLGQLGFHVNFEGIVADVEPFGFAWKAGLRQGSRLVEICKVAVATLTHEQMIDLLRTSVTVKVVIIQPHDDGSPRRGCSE

GORASP2, Q9H8Y8 = biological target: GORASP2, Q9H8Y8
DLG2_2, Q15700 = biological target: DLG2_2, Q15700
DLG2_2, Q15700, sequence (Q15700 189-283): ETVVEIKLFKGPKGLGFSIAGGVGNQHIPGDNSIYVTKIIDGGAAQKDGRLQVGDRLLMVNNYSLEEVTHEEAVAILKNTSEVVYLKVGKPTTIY

Measured: pKd

SCRIB_2, Q14160, sequence (Q14160 857-960): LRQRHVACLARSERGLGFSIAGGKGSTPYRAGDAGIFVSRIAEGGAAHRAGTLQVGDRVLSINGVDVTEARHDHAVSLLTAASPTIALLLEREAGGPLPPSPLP

KEKASTETEC [TRPM1, Q7Z4N2]
3.52: SCRIB_2, Q14160 | DLG2_2, Q15700
3.92: DLG3_2, Q92796
4.23: SCRIB_3, Q14160
3.58: ARHGEF12, Q9NZN5-2
3.65: DLG4_3, P78352
below the threshold: all other assays above

QKASRNESTF [POLR1D, P0DPB6]
3.6: DLG3_3, Q92796
4.23: DLG3_2, Q92796
4.12: SCRIB_3, Q14160
below the threshold: all other assays above

RDYTQSSSSL [GRM5, P41594]
4.28: ARHGEF12, Q9NZN5-2
4.7: SHANK1, Q9Y566
3.65: FRMPD4, Q14CM0
4.05: SCRIB_3, Q14160
4.33: GRASP, Q7Z6J2
3.96: DLG3_2, Q92796
below the threshold: all other assays above
